Measured values from patent publication US8530168B2, “Fusion protein comprising a Caspase domain and a nuclear hormone receptor binding domain and methods and uses thereof” (Helmholtz Zentrum Munich Deutsches Forschungszentrum fuer …, priority 2007, dated 2013).

Experiments:
Assay type in all cases: cell-based, mouse
MEF5/N9 cells [1] = assay: TUNEL in situ cell death detection assay of MEF5/N9 clones; conditions: 10^−8 M 4-OH-tamoxifen
Description: TUNEL, or terminal deoxynucleotidyl transferase-mediated dUTP nick end-labeling, is acknowledged as a method of choice in the rapid detection of DNA fragmentation that results from apoptotic signaling cascades (Gavrieli et al., J. Cell Biol., 119(3), 493-501 (1992)). Cleavage of genomic DNA during apoptosis may yield double-stranded, low molecular weight DNA fragments as well as single strand breaks (“nicks”) in high molecular weight DNA. Those DNA strand breaks can be identified by terminal deoxynucleotidyl transferase (TdT), which catalyzes polymerization of labeled nucleotides to free 3′-OH DNA ends in a template-independent manner. To detect 4-OH-tamoxifen induced cell death in MEF5/N9 cells, we applied the In Situ Cell Death Detection Kit, POD by Roche according to the manufacturer's instructions. Incorporated fluorescein is detected by anti-fluorescein antibody, conjugated with horse-radish peroxidase (POD). After substrate reaction, stained cells can be analyzed under light microscopy.
Two days prior to the TUNEL staining, round glass cover slips ([…]) were sterilized with 70% EtOH, dried under laminar flow and coated with Poly-L-lysine at a concentration of 50 μg/ml over night at 37° C., which allows a better attachment of cells on the cover slips. The following day, the cover slips were rinsed 3 times with PBS and dried for 1 hour under laminar flow. 2.5·10^5 cells were seeded onto cover slips in a 6-well plate. On the test day, medium was replaced either by fresh medium or medium supplemented with 10^−8 M 4-OH-tamoxifen. […] After fixation, cells were rinsed three times in PBS, covered with 100% methanol and incubated for 10 min or over night in a freezer and rinsed in PBS. Endogenous peroxidase activity was blocked by immersing cover slips for 10 min in 3% H2O2 in methanol prior to cell permeabilization. Cells were subsequently rinsed with PBS and incubated in permeabilization solution (0.1% Triton X-100 in freshly prepared 0.1% sodium citrate) for 2 min on ice. To generate a positive control, DNA strand breaks were induced by incubating permeabilized cells with 2 U/ml DNase I in 50 mM Tris-HCl, pH 7.5, 10 mM MgCl2, 1 mg/ml BSA for 10 min at room temperature, prior to labeling procedure. Cover slips were rinsed twice with PBS before incubating each sample with 25 μl TUNEL reaction mixture for 60 min at 37° C. in a humidified atmosphere in the dark. To avoid evaporative loss, cover slips were covered with parafilm. For a negative control 25 μl of Label solution without enzyme solution were added. Following labeling, cover slips were rinsed 3 times with PBS for 10 min each. To convert the fluorescence signal to a chromogenic signal, 25 μl of the POD solution were added on each sample which was covered with parafilm and incubated in a humidified chamber for 30 min at 37° C. Subsequently, cover slips were rinsed 3 times with PBS and incubated in freshly prepared 0.05% DAB in 0.1 M Tris-HCl (pH 7.4) supplemented with 0.02% H2O2 for 10-20 min at room temperature. The conversion procedure was controlled under a light microscope. The reaction was stopped with PBS until brown precipitates were well visible inside the cells. To remove DAB, cover slips were rinsed several times in PBS. Optionally, nuclear staining was performed by incubating cover slips for 15 min in 2.5 μg/ml DAPI diluted in PBS. Cover slips were mounted with a water-soluble, non-fluorescing mounting medium (Aqua-Poly/Mount; Polysciences Inc., Eppelheim, Germany) under SuperFrost slides (VWR International). Prior to the analysis of the samples under a light microscope, mounting medium was dried for 24 hours at room temperature.
To provide direct evidence for 4-OH-tamoxifen-induced apoptosis in MEF5/N9 clones expressing Caspase-8 or -9 fusion proteins, an in situ application of the TUNEL assay was performed. This method detects DNA fragmentation, one of the late events that result from apoptotic signaling cascades. […]

MEF5/N9 cells [2] = assay: MTT cytotoxicity assay of stably transfected MEF5/N9 clones; conditions: 10^−8 M 4-OH-tamoxifen, 48 h
Outline: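 Hygromycin-selected MEF5/N9 clones stably carrying ER(T2) fusion constructs, 4·10^3 cells/well, treated 48 h with or without 10^−8 M 4-OH-tamoxifen, in triplicate. Survival measured by MTT (0.5 mg/ml, 4 h, 37° C), formazan dissolved in HCl/isopropanol, absorbance at 570 nm.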

MEF5/N9 cells [3] = assay: Visible phenotypic changes / viability of stably transfected MEF5/N9 clones on 4-OH-tamoxifen treatment; conditions: 10^−8 M 4-OH-tamoxifen, 24 h
Outline: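 Hygromycin-selected MEF5/N9 clones stably expressing ER(T2) fusion proteins were plated at 1·10^5 cells/well and next day given 10^−8 M 4-hydroxy-tamoxifen. Cell death was judged from phase-contrast micrographs at 10- or 20-fold magnification taken 24 h after induction.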

MEF5/N9 cells [4] = assay: Transient cotransfection of ER(T2) fusion expression vectors with β-galactosidase reporter; β-galactosidase activity in lysates; conditions: no 4-OH-tamoxifen; transient transfection 50 or 100 ng vector; relative to Cre-ER(T2) without 4-OH-tamoxifen

B1: Casp9full-ER(T2): full length murine Caspase-9 fused to ER(T2) ligand binding domain, SEQ ID NO: 29 (protein)
chain: MDEADRQLLRRCRVRLVSELQVAELWDALLSRELFTRDMIEDIQQAGSGSRRDQARQLVTDLETRGRQALPLFISCLEDTGQGTLASLLQSGRQAAKQDPEAVKPLDHLVPVVLGPMGLTAKEQRVVKLDPSQPAVGNLTPVVLGPEELWPARLKPEVLRPETPRPVDIGSGGAHDVCVPGKIRGHADMAYTLDSDPCGHCLIINNVNFCPSSGLGTRTGSNLDRDKLEHRFRWLRFMVEVKNDLTAKKMVTALMEMAHRNHRALDCFVVVILSHGCQASHLQFPGAVYGTDGCSVSIEKIVNIFNGSGCPSLGGKPKLFFIQACGGEQKDHGFEVACTSSQGRTLDSDSEPDAVPYQEGPRPLDQLDAVSSLPTPSDILVSYSTFPGFVSWRDKKSGSWYIETLDGILEQWARSEDLQSLLLRVANAVSAKGTYKQIPGCFNFLRKKLFFKTSVEPSAGDMRAANLWPSPLMIKRSKKNSLALSLTADQMVSALLDAEPPILYSEYDPTRPFSEASMMGLLTNLADRELVHMINWAKRVPGFVDLTLHDQVHLLECAWLEILMIGLVWRSMEHPVKLLFAPNLLLDRNQGKCVEGMVEIFDMLLATSSRFRMMNLQGEEFVCLKSIILLNSGVYTFLSSTLKSLEEKDHIHRVLDKITDTLIHLMAKAGLTLQQQHQRLAQLLLILSHIRHMSNKGMEHLYSMKCKNVVPLYDLLLEAADAHRLHAPTSRGGASVEETDQSHLATAGSTSSHSLQKYYITGEAEGFPATA
modifications: fusion protein Casp9full-ER(T2)
TUNEL result / apoptotic morphology (in words) (MEF5/N9 cells [1]; 3 or 7 hours): typical apoptotic morphology | incubation time with 4-OH-tamoxifen at which TUNEL positive cells were detected (MEF5/N9 cells [1]; fixation at 2, 3, 5 and 7 hours): 3 h | cell viability in the presence of 4-OH-tamoxifen (MTT) (MEF5/N9 cells [2]): 6% | 4-OH-tamoxifen-dependent cell death, phenotype of stable clones (MEF5/N9 cells [3]): died in the presence of 4-OH-tamoxifen within 24 h | 4-OH-tamoxifen-dependent cell death, phenotype of stable clones (MEF5/N9 cells [3]; listed as Casp9fullER): substantial cell death | basal toxicity: relative β-galactosidase activity compared to the negative control in absence of 4-OH-tamoxifen (MEF5/N9 cells [4]): 62%
